# According to patent US20230398228A1, “ERIBULIN-BASED ANTIBODY-DRUG CONJUGATES AND METHODS OF USE” (EISAI R&D MANAGEMENT CO., LTD., priority 2016, published 2023):
# Several values for one entry are separate records, joined by “and”; a condition that tells them apart may be missing. Identical values can stand only once. Entries after “also recorded” stand apart in the source; their conditions may differ. Like-named read-outs stand apart in the source and are kept apart here.
# Columns and labels:
# [1] = Maximum tolerated dose of MORAb-202 in CD-1 mice; assay type: in vivo, mouse
# Method: Body weight was measured prior to dose on the dosing day, 24 hours post dose, and three times a week thereafter. […] Two weeks after dosing, the terminal body weight was measured and recorded. Euthanized mice at the end of the study (and if any mouse euthanized or found dead during the study) were processed for necropsy. Organs were examined for signs of tissue damage.
# NUGC3 cells = experiment: Crystal Violet cytotoxicity assay (Example 4), NUGC3; assay type: cell-based, human; details: listed as MORAb-003-VCP-eribulin
# Method: (§1) Test reagents were serial diluted 1:3 in 2 mL deep-well dilution plates, starting at 200 nM (10 dilutions total). […] Medium was then discarded. […] Plates were read at 570 nm. Data was analyzed using GraphPad Prism 6.
# BT-474 cells = experiment: Crystal Violet cytotoxicity assay (Example 4), BT-474; assay type: cell-based, human
# Method: as §1
# [2] = tested on: human BM-MSCs co-cultured with MKN-74 cells; experiment: 3D co-culture system (rStomach, zPredicta), MSC differentiation by flow cytometry; assay type: cell-based; details: 7 days treatment, MORAb-202 10 nM, MORAb-003 10 nM, eribulin […] and 0.2 nM (Table 41)
# Method: All mesenchymal stem cell (MSC)-containing 3D co-culture experiments were conducted in zPredicta, using organ-specific 3D extracellular matrix systems such as rStomach™. Bone marrow mesenchymal stem cells (BM-MSCs) in rStomach™ were co-cultured with the Nuc Red Light MKN-74 gastric cancer cell line in quadruplicate in 48-well format for 12 days. […] Prior to culture, BM-MSCs were evaluated for target antigen expression and for markers of MSC differentiation (Table 40) by flow cytometry.
# Controls included untreated and vehicle-treated (PBS and DMSO) cultures. MSC differentiation was monitored by light microscopy. Once visible differentiation was observed, samples were harvested for staining and flow cytometry analysis.
# Bone marrow mesenchymal stem cells (BM-MSCs) in rStomach™ (zPredicta) were co-cultured with the MKN-74 gastric cancer cell line for 12 days. […] Once visible MSC differentiation was observed by light microscopy, samples were harvested for staining and flow cytometry analysis.
# [3] = tested on: Endo-10590 endometrial cancer patient-derived xenograft; experiment: Endometrial cancer PDx model Endo-10590
# Method: Tumor fragments were implanted subcutaneously into the left flank of 40 NMRI nu/nu female mice, and tumor volume was monitored. Mice with a tumor volume of 100-160 mm^3 were randomized into one of four groups (Groups A-D, Table 39). […] Each group consisted of 8 animals. The day of randomization was designated as Day 0 of the experiment.
# Tumor growth was evaluated by the measurement of two perpendicular diameters twice weekly, and tumor volume (TV), relative tumor volume (RTV) and treated/control (T/C) values were calculated. Body weight was also evaluated twice weekly as a parameter for toxicity, with the calculation of the body weight per group and body weight changes (BWC) relative to the start of treatment. Animals were sacrificed when the individual tumor volume exceeded 1 cm^3, or at the end of the study.
# [4] = tested on: cancer associated fibroblasts (α-smooth muscle actin) in H2110 xenograft; details: 5 mg/kg single dose
# Method: Prior to staining, slides were dewaxed and antigen was retreived in a Lab Vision™ PT Module (Thermo Scientific), in citrate buffer (pH 6.0) pre-warmed to 85° C., using the following program: warm to 97° C.; incubate at 97° C. for 30 min; and cool to 60° C. Slides were then transferred to double distilled water at room temperature for 5 min. Staining was performed in a Lab Vision™ Autostainer 360 (Thermo Scientific). Briefly, slides were washed twice in 1×Tris-buffered saline/Tween-20 (TBST) for 6 min/wash. Tissue sections were then incubated in blocking buffer (300 μL) (10% goat serum (Jackson Immunoresearch Laboratory Inc., Cat No. 005-000-121) diluted in 3% bovine serum albumin (BSA)-phosphate buffered saline (PBS)) for 1 hour, incubated in conjugated antibody (200 μL) (Table 38) for 1 hour, and washed five times in 1×TBST for 6 min/wash. Slides were counterstained with DAPI in mounting media, and coverslipped slides were allowed to harden for 30 min. Slides were processed on a Panoramic MIDI scanner (3[sequence]), and IHC images were analyzed using Halo software (Indica Labs).
# Collected tumor samples were processed on slides, and cancer associated fibroblast (CAF) expression was analyzed by IHC.
# NCI-H2110 cells = details: Example 1
# Method: (§2) Typically, test reagents were serial diluted 1:4 in 2 mL deep-well dilution plates, starting at 1 μM (10 dilutions total). 100 μL of diluted samples were added to the cell plates (starting concentration of test samples at 500 nM). […] Medium was discarded, plates were washed once with 200 μL DPBS, stained with 50 μL of 0.2% Crystal Violet solution at room temperature for 15 min, and then washed extensively with tap water. Plates were air-dried, and Crystal Violet was dissolved with 200 μL of 1% SDS solution. Plates were read at 570 nm. Data was analyzed using GraphPad Prism 6. Assays were performed using a seeding density of 1,000 cells per well and compound exposure was for a total of 5 days. When shorter-term exposure was desired, medium containing cytotoxic agents was removed after 4 hours and replaced with fresh growth medium prior to 5-day incubation. For OVCAR3, CaOV3, and NCI-H2110, cells were seeded at 3,000 cells/well and incubated for 5 days with ADC.
# (§3) SJSA-1 cells are a human osteosarcoma tumor cell line that are negative for folate receptor alpha.
# Typically, test reagents were serially-diluted 1:4 in 2 mL deep-well dilution plates, starting at 1 μM (10 dilutions total). 100 μL of diluted samples were added to the cell plates (starting concentration of test samples at 100 nM). […] Medium was discarded, plates were washed once with 200 μL DPBS, stained with 50 μL of 0.2% Crystal Violet solution at room temperature for 15 min, and then washed extensively with tap water. Plates were air-dried, and Crystal Violet was dissolved with 200 μL of 1% SDS solution. Plates were read at 570 nm. Data was analyzed using GraphPad Prism 6.
# OVCAR3 cells = experiment: Crystal Violet cytotoxicity assay (Examples 1 and 2), OVCAR3; details: Example 1
# Method: as §2, §3
# Typically, test reagents were serially-diluted 1:4 in 2 mL deep-well dilution plates, starting at 1 μM (10 dilutions total). 100 μL of diluted samples were added to the cell plates (starting concentration of test samples at 100 nM). […] Plates were read at 570 nm. Data was analyzed using GraphPad Prism 6.
substance,measurement,setting,value
MORAb-003-maleimido-PEG2-Val-Cit-pAB-eribulin [MORAb-202],Body weight of individual mice,"[1]; 40 mg/kg single bolus i.v., CD-1 mice, day 7 post Rx",25.10 g and 25.50 g and 23.40 g
same,"Body weight, group mean","[1]; 40 mg/kg single bolus i.v., CD-1 mice, day 7 post injections",24.7 g
same,Body weight of individual mice,"[1]; 40 mg/kg single bolus i.v., CD-1 mice, day 9 post Rx",25.80 g and 25.20 g and 23.70 g
same,"Body weight, group mean","[1]; 40 mg/kg single bolus i.v., CD-1 mice, day 9 post injections",24.9 g
same,Body weight of individual mice,"[1]; 40 mg/kg single bolus i.v., CD-1 mice, day 11 post Rx",25.30 g and 25.00 g and 23.80 g
same,"Body weight, group mean","[1]; 40 mg/kg single bolus i.v., CD-1 mice, day 11 post injections",24.7 g
same,Body weight of individual mice,"[1]; 40 mg/kg single bolus i.v., CD-1 mice, day 14 post Rx",25.70 g and 25.30 g and 26.30 g
same,"Body weight, group mean","[1]; 40 mg/kg single bolus i.v., CD-1 mice, day 14 post injections",25.8 g
same,Body weight of individual mice,"[1]; 80 mg/kg single bolus i.v., CD-1 mice, day 0 post Rx",21.80 g and 26.50 g and 25.80 g
same,"Body weight, group mean","[1]; 80 mg/kg single bolus i.v., CD-1 mice, day 0 post injections",24.7 g
same,Body weight of individual mice,"[1]; 80 mg/kg single bolus i.v., CD-1 mice, day 1 post Rx",23.10 g and 27.80 g (2×)
same,"Body weight, group mean","[1]; 80 mg/kg single bolus i.v., CD-1 mice, day 1 post injections",26.2 g
same,Body weight of individual mice,"[1]; 80 mg/kg single bolus i.v., CD-1 mice, day 2 post Rx",23.30 g and 28.30 g (2×)
same,"Body weight, group mean","[1]; 80 mg/kg single bolus i.v., CD-1 mice, day 2 post injections",26.6 g
same,Body weight of individual mice,"[1]; 80 mg/kg single bolus i.v., CD-1 mice, day 4 post Rx",23.50 g and 29.50 g and 28.60 g
same,"Body weight, group mean","[1]; 80 mg/kg single bolus i.v., CD-1 mice, day 4 post injections",27.2 g
same,Body weight of individual mice,"[1]; 80 mg/kg single bolus i.v., CD-1 mice, day 7 post Rx",23.30 g and 30.40 g and 30.10 g
same,"Body weight, group mean","[1]; 80 mg/kg single bolus i.v., CD-1 mice, day 7 post injections",27.9 g
same,Body weight of individual mice,"[1]; 80 mg/kg single bolus i.v., CD-1 mice, day 9 post Rx",23.60 g and 31.00 g and 30.20 g
same,"Body weight, group mean","[1]; 80 mg/kg single bolus i.v., CD-1 mice, day 9 post injections",28.3 g
same,Body weight of individual mice,"[1]; 80 mg/kg single bolus i.v., CD-1 mice, day 11 post Rx",23.10 g and 29.10 g and 29.40 g
same,"Body weight, group mean","[1]; 80 mg/kg single bolus i.v., CD-1 mice, day 11 post injections",27.2 g
same,Body weight of individual mice,"[1]; 80 mg/kg single bolus i.v., CD-1 mice, day 14 post Rx",21.70 g and 28.40 g and 28.90 g
same,"Body weight, group mean","[1]; 80 mg/kg single bolus i.v., CD-1 mice, day 14 post injections",26.3 g
same,"toxicity, in words",[1]; doses up to 80 mg/kg via bolus intravenous administration,no toxicity
same,maximum tolerated dose (MTD),"[1]; single bolus intravenous dose, CD-1 mice",above 80 mg/kg
same,"body weight loss compared with PBS control, in words","[1]; single i.v. dose 10, 20, 40 or 80 mg/kg",No significant body weight loss
same,"cytotoxicity on NUGC3 cells, in words",NUGC3 cells,little killing; also recorded: low cytotoxicity
same,"cytotoxicity on BT-474 cells, in words",BT-474 cells,little killing
same,"Percentage of live cells, Pericytes",[2]; PBS 14.6%,11.4%
same,"Percentage of live cells, Adipocytes",[2]; PBS […],22.6%
same,"Percentage of live cells, MSCs",[2]; PBS […],43.7%
same,"tumor re-growth during the study, in words",[3]; MORAb-202 5 mg/kg or eribulin 3.2 mg/kg,no significant tumor re-growth
same,"anti-tumor activity, in words","[3]; MORAb-202 5 mg/kg or eribulin 3.2 mg/kg, single i.v. dose",significant anti-tumor activity
same,"effect on body weight, in words",[3]; first week post-treatment,no body weight loss
same,"CAF network structure (anti-α-SMA-FITC staining), in words",[4]; Day 3 and Day 5,prominent
same,"CAF network structure (anti-α-SMA-FITC staining), in words",[4]; by Day 7,significantly diminished
same,"cytotoxicity on NCI-H2110 cells, in words",NCI-H2110 cells,potent cytotoxicity
same,IC50,NCI-H2110 cells; read-out: IC50 on NCI-H2110,0.73 nM
same,"cytotoxicity on OVCAR3 cells, in words",OVCAR3 cells,potent cytotoxicity
